Here are results for 41 sequences from the nanobody polyreactivity screen of Harvey et al. (2022).

A short description of the series: yeast display, Sf9 membrane polyspecificity reagent, FACS + sequencing; frameworks hold sequencing errors. The method in brief: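 Synthetic nanobody libraries on Saccharomyces cerevisiae BJ5465 were galactose-induced for 36–48 hours, stained 1 hour at 4 °C with 10% biotinylated, detergent-solubilized Sf9 membrane reagent and enriched on streptavidin microbeads. FACS then separated cells into low and high (top ~1%) gates by anti-HA (expression) and streptavidin (reagent binding) fluorescence. Genes were colony-PCR amplified, MiSeq 2 × 250 sequenced and CDR-length filtered. A clone's polyreactivity label is that of its gate of origin.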
On to “QVQLVESGGGLVQAGGSLRLSCAASGNIFTYYVRGWYRQEPGKERELVAAISRRGGSTYYADSVKGRFTISRDFAKNTVYLQMNSLKPEDTAVYYCAKKYPRDMDYWGQGTQVTVSS”, for which the “polyreactivity (PSR sort gate)” value was “high polyreactivity”.
The entry for “QVQLVESGGGLVQAGGSLRLSCAASGSNFSAYMGWYRQAPGKERELVADISSTGTTYYADSVKGRFTISRDNAKNTVYLQMNSLKPEDTAVYYCNADYFLQQEVTFDYWGQGSQVTVSS” is “high polyreactivity”.
The entry for “QVQLVESGGGLVQAGGSLRLSCAASGLIFSQYAMGWYRQAPGKEREFVARISSSGGSTYYADSVKGRFTISRDNAKNTVYLQMNSLKPEDTAVYYCAAVGGRNIRVWFRTKYDYWGQGTQVTVSS” is “low polyreactivity”; for “QVQLVESGGGLDQAGGSLRLSCAASGSIFYRNAIGWYRQAPGKDREFVAAITLRGGSTYYADSVKGRFTISRDNAKNTVYLQMNSLKPEDTAVYYCAADLLLYSSQDNDYWGQGTQVTVSS” it is “low polyreactivity”.
Next, “QVQLVESGGGLVQAGGSLRLSCAASGIIFKLYAMGWYRQAPGKEREFVATITKTCGRTYYADSVKGRFTISRDNAKNTVYLQMNSLKPEDTAVYYCAARRVNGKMYYWGQGTQVTVSS”: “high polyreactivity”.
Consider “QDQLVESGGGLVQAGGSLRLSCAASGSTFRHYAMGWYRQAPGQESELVAAISSRGGRTYYADSVKGRFTISRDNAKNTVYFQMNSLKPEDTAVYYCAADRFRLYVGGWWYDYWGLGTQVTVSS”, for which the “polyreactivity (PSR sort gate)” value was “high polyreactivity”.
As for “QVQLVESGGGLVQAGGSLRLTCAASGRTFGRYAMGWYRQAPGKEMDLVAAIRYTGGSTYADSVKGRFTISRDNAKNTVYLQMNRLKPEETAVYYCNRCGAFNTRNEITRYGYWGQGTQVTVSS”, the “polyreactivity (PSR sort gate)” value is “low polyreactivity”.
In the case of “QVQLVESGGGLVQAGGSLRLSCAASGLTFDWYAMGWYRQAPGKERELVAAISWNGVSTDYADSVKGRFTISRDNAKNTVYLQMNSLKPEDTAVYYCAADPPWYLYVGFDYWGQGTQVSVSS”, the “polyreactivity (PSR sort gate)” value is listed as “high polyreactivity”.
The entry for “QVQLVESGGGLVQAGGSLRLSSAAYGSIFDSNAMGWYRQAPGKERELVAAIRYSGGRTYYADSVKGRFTISRDNAKNTVYLQMNILKPEDTAVYYCAARSKVYKVGYNYWGQGTQVTVSS” is “high polyreactivity”; for “QVQLVESGGGLVQAGGSLRLSCAASGRTIDHYAMGWYRQAPGKERELVAAISTTGGSTYYADSVKGRFTISRDNAKNTVYLQMNSLKPEDTAVYYCAAQLGWWGSGYWGQGTQVTVSS” it is “high polyreactivity”.
The entry for “QVQLVESGGGLVQAGGSLRLSCAAAGSIVWFYAMGWYRQAPGKERELFASISSSGGSTYYADSVKGRFTISRDKAKNPGNIQMNTLKPEYTAVYYCAKRTNWGYWYNSWGQGTQVTVSS” is “high polyreactivity”; for “QVQLVESGGGLVQAGGSLRLSCDASGIIFGFNTMGWYRQAPVKERELVAAINGSDGSTYADSVKGRFTISRDNAKNTVYLQMISVKPEDTAVYYCAKALDYRYRRYDYWGQGTQVTVSS” it is “low polyreactivity”.
Next, “QVQLVESGGGLVQAGGSLRLSSADSGRIFYRYMVWYRHAPGKERELVAAISGRATRTYYADSVKGRFTISRDNAKKTVYLQMNSLKPEDTAVYYCAKRSYHGGDYWGQGTQVTVSS”: “high polyreactivity”; “QVQLVESGGGLVQAGGSLRLSCAASGSTFKNNAMGWYRQAPGKEREFVASISKRGGSTYYADSVKGRFTISRDNAKNTVYLQMNSLKPEDTAVYYCGKTYWSYGWSHGDYGEFDYWGQGSQVTVSS”: “high polyreactivity”.
In the case of “QVQLVESGGGLVQAGGSLRLSCAASGSIFYSNAMGWYRQAPGKEREFVAAISAGGGSTYYADSVKGRFTISRDNAKNTVYLQMNSLKPEDTAVYYCAAQPYKIIYPYDYWGQGTQVTVSS”, the “polyreactivity (PSR sort gate)” value is “low polyreactivity”.
As for “QVQLVESGGGLVQAGGSLRLSCAASGRTLYVNAMGSYRQAPGKERELVARISSGSSTNYADSVKGRFTISRDNAKNTVYLQMNSLKPEHTAVYYCAARYTARRQSYGYWGQGTQVTVSS”, the “polyreactivity (PSR sort gate)” value is reported as “high polyreactivity”.
Next, “QVQLVESGGGLVPAGGSLRLSCAASGSTFEVNAMGWYRQAPGKERELVADITSGGSTNYADSVKGRFTISRDNAKNTVFLQMNSLKPEDTAVYFCARDDWFGFIRVQEMDYWGQGTQVTVSS”: “low polyreactivity”.
Next, “QVQLVESGGGLVQAGGSLRLSCAASGSIIDYNAMGWYRQAPGKERELVAAIDWSGSSTYYADSVKGRFTISRDNAKNTVYLQMNSLKPEDTAVYYCNALAYYGMDYWGQGTQVTVSS”: “low polyreactivity”; “QVQLVESGGGLVQAGGSLRLSCAASGFIFYPYAMGWYRQAPGKERELVASIYSGGRTYYADSVKGRFTISRDNAKHTVYLQMNSLKPEDTAVYYCNARSRYFGYDYWGQGTQVTVSS”: “high polyreactivity”; “QVQLVESGGGLFQAGGSLRLSCAASGIIFYVNAMAWSRQAPGKERERVAVISRRGGSTNDADSVKGRFTISRDNAKNTVYLQMKSLKPEDTAVYYCDAGYRTAYRGSSYYYWGKGTQVTVSS”: “high polyreactivity”.
As for “QVQLVESGAGLVQAGGSLRLSCAASGSIFRKYGMGLYRQAPGKDRELVATITSSGGSTYYADSVKGRFRISRDNAKNTVYVQMNSLIPEDTAVYYCAARWTYSFHWFSRYDYWGPGTQVTVSS”, the “polyreactivity (PSR sort gate)” value is “high polyreactivity”.
The entry for “QVQLVESGGGLVQAGGSLRLSCAASGSTYYLYAMGWYRQAPGKESEFVARISASGGNTYYADSVKGRFTISRDNAKNTVYLQMNRLIPEDTAVFYCAARVRGRNASDYDYYYWGQGTQVTVSS” is “high polyreactivity”; for “QVQLVESGGGLVQAGGSLRLSCAASGGTFSVNAMGWYRQAHGTERELVAAISWRGGSTYNADSVKGRFTISRDTAKNTFYLQMNSLKPEDTAVYYCAKYRYYYYWFNYWGQGTQVNVSS” it is “high polyreactivity”.
In the case of “QVQLLESGGGLVQAGGSLRLSCAASGSIFGYYAMGWYRQAPGKERELVAAISVNGGRTYYADSVKWRFTISRDIAKNTVYLQMNMLKPEDTAVSYCAAELVDFITFRGDFYYWGQGTEVTVSS”, the “polyreactivity (PSR sort gate)” value is “high polyreactivity”.
Next, “QVQLVESGGGLVQAGGSLRLSCAASGRTFVSYAMGWYRQAPGKETELVAAIDSSGTSTYYADSVKGRFTISRDNAKNTVYLQMNSLKPEDTAVYYCAKAWPDHWYSRYDYWGQGTQVTVSS”: “low polyreactivity”; “QVQLVESGGGLVQAGGSLRLSCAASGSTLDSNAMGWYRQAPGKERELVAGIDWSGGSTYADSVKGRFTISRDNAKNTVYLQMNSLKPEDTAVYYCNRKLTRFTSFPLDYWGQGTQVTVSS”: “low polyreactivity”; “QVQLVESGGGLVQAGGSLRLSCAASGYTIDGYAMGWYRQAPGKERELVAGISSAGTTNYADSVKGRFTISRDNAKNTVYLQMNSLKPEDTAVYYCNKDYSTYWLYTWQITVADDYWGQGTQVTVSS”: “low polyreactivity”.
Next, “QVQLVESGGVLVQAGGSLRLSCAASGRIFLEYAMGWYRQAPGKERELVAAISRGGGRTYYADSVKGRFTISRDNAKNTVYLLMNSLKPEDTAVYYCAAGLAKGYWASFAYRYDYWGQGTQVTVSS”: “high polyreactivity”.
In the case of “QVQLVESGGGLVQAGGSLRLSCAASGSTFTPYTMGWYRKAPGKETELVAAIRYGGGSTYYADSVKGRFTISRDNAKNTVYLQMNSLKPEDTAVYYCAVDSFYSGGTYDSDGYWGQGTQVTVSS”, the “polyreactivity (PSR sort gate)” value is listed as “low polyreactivity”.
Next, “QVQLVESGGGLLQAGGSLRLSCAASGSIFESYAMGWYRQAPGKERELVAAITSSGDSTYYADSVKGRFTISRDNAKNTVYLQMNSLKPEDTAVYYCAKRVPTYISTAEWGSRYDYWGQGTQVTVSS”: “low polyreactivity”; “QVQLVESGGGLVQAGGSLRLSCAASGSTFGVYDMGWYRQAPGKERELVAAITGNGGRTYYADSVKGRFTISRDNAKNTVYLQMNSLKPEDTAVYYCNARVKRYVYWPYDYWGQGTQVTVSS”: “high polyreactivity”; “QVQLQESGGRLVQSGGSLRPSCAASGSISDGVPMGWNSQAPGDERELVATTVLGATTNNADSVKGRFTISRGNAKNTVYLQMNSLKPEETAVYYCAAPLRYDKGFSYWGQGTQVTVSS”: “low polyreactivity”.
The entry for “QVQLVESGGGLVQAGGSLRLSCAASGSNFVVYAMGWYRQAPGKERELVAAITGSGGRTYYADSVKGRFTISRDNAKNTVYLQMNSLKPEDTAVYYCATDSRGGIFDYWGQGTQVTVSS” is “low polyreactivity”; for “QVQLVESGGGLVQAGGSLRLSCAASGRTFTVYAMGWYRQAPGKEREFVATISRSGGSTYYADSVKGRFTISRDNAKNTVYLQMNSLKPEDTAVYYCAARRSGRKYDYWGQGTQVTVSS” it is “high polyreactivity”; for “QVQLVESGGGLVQAGGSLRLSSAASGIIFRDNAMGWYRQAPGKERELVAAIDSSGGTTYADSVKGRFTISRDNAKNTVYLQMNSLKPEDTAVYYCATEVYWTVSYYGYDYYGGNYYYWGQGTQVTVSS” it is “low polyreactivity”.
Next, “QVQLVESGGGLVQAGGSLRLSCAASGSTFYNNAMGWYRQAPGKERELVATISASSTSTYYADSVKGRFTISRDNAKNTVYLQMNSLKPEDTAVYYCAKDYVHGSTYGYYWYGYDYWAQGTQVTVSS”: “low polyreactivity”; “QVQLVESGGGLVQAGGSLRLSCAASGIIFENYAMGWYRQAPGKERELVAAISAGGAITYYADSVKGRFTISRDNAKNTVYLQMNSLKPEDTAVYYCNAKSYRHLLYIPYKYNYWGQGTQVTVSS”: “high polyreactivity”; “QVQLVESGGGLVQAGGSLRLSCAASGFTFPEYAMGWYRQAPGKERELVAAISSGDSTNYADSVKGRLTISRDNAKNTVYLQMNILKPEDTAVDYCAADYYDYYYEYEYWGQGTQVTVSS”: “low polyreactivity”.
As to “QVQLVESGGGLVQAGGSLRLSCAASGGTFFTNAMGWYRHAPGKERELVAVITGSGGRTYYADSVKGRFTISRDNAMNTVYLQMNSLKPEDTAVYYCAARGYSWGQGTQVTLSS”, the “polyreactivity (PSR sort gate)” value was “high polyreactivity”.
With “QVQLVESGGGLVQAGGSLRLSCAASGSTFDPYGKGWYRQAPGKERELVATITYSSGSTSYADSVKGRFTISRDHAKNTVYLQMNSLKPEDTAVYYCAKKYYTGYGYWGQGTQVTVSS”, the “polyreactivity (PSR sort gate)” value was “low polyreactivity”.
Next, “QVQIVESGGGLVQAGGSLRISCAASGRTIHLYDMGWYRQAPGKERELVAAITWSSGRTYYADSVKGRVTISRDNAKNTVYVQMNILKPEDTEVYYCAADVWGGLLPGYDYWGQGTQVTVSS”: “high polyreactivity”.
